This experiment has as its target Chlamydia psittaci BioE (Chlamydia psittaci). The experiment is described as follows: SPR. On the technique in general: Surface plasmon resonance follows binding to a sensor surface in real time, without labels.

B1: stearoyl-ACP (E. coli acyl carrier protein carrying a C18 acyl group) (natural protein)
chain: STIEERVKKIIGEQLGVKQEEVTNNASFVEDLGADSLDTVELVMALEEEFDTEIPDEEAEKITTVQAAIDYINGHQA
modifications: holo-ACP carrying a stearoyl (C18) group, made with VhAasS
For the molecule B1, the off-rate (koff) (as a rule, a measure of how fast the partners let go of each other) is 0.00316 s⁻¹.

Source of the values: PMC12915131 (2025).
